Reference: patent US20230357348A1 (AstraZeneca / MedImmune, published 2023)
Values belong to the binder of their own block, whether it stands above or below them. Starred links: 1 amine or outer side, 2 acyl side, 3 side chain; linkers in the order of their positions; H or OH if unused. Non-standard residues stand in square brackets, D forms with d. Groups on a side chain read outwards from the residue. No end group written: not given here. *: point of attachment. C18 diacid = O=C(O)CCCCCCCCCCCCCCCCC(=O)*; γGlu = O=C(O)[C@H](CCC(=O)[*:2])N[*:1]; αMeF = C[C@](N)(Cc1ccccc1)C(=O)O; AEEA = NCCOCCOCC(=O)O; Aib = CC(C)(N)C(=O)O

Key:
[1] = target: human GLP-1 receptor (hGLP-1R) (human, UniProt P43220 24-463); assay: cell-based or functional assay
[2] = target: human glucagon receptor (hGCGR) (human, UniProt P47871 26-477); assay: cell-based or functional assay
Sequence of human glucagon receptor (hGCGR) (P47871 26-477): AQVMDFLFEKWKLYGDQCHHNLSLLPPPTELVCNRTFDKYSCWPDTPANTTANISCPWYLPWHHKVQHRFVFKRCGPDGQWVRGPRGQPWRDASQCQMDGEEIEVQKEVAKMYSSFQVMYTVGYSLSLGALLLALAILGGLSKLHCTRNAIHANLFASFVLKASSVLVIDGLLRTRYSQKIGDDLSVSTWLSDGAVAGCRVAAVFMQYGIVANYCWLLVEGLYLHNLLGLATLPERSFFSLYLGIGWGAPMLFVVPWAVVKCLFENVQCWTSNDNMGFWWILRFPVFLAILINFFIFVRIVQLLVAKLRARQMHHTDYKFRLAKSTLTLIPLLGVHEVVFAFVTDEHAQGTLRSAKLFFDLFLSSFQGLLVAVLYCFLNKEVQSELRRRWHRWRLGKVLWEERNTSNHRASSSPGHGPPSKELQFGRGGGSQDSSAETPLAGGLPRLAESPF

- hGLP-1R EC50 (pM) [1]: 24.6 pM
- hGluc-R EC50 (pM) [2]: 1630 pM
B1: Peptide 146 (peptide)
peptide: H[Aib]QGTFTSDVSK[αMeF]LDSK([AEEA-AEEA-γGlu-C18 diacid])RAQDFVRWLASR-OH
modifications: N-terminus assumed
SMILES: CC(C)C[C@H](NC(=O)[C@H](Cc1c[nH]c2ccccc12)NC(=O)[C@H](CCCNC(=N)N)NC(=O)[C@@H](NC(=O)[C@H](Cc1ccccc1)NC(=O)[C@H](CC(=O)O)NC(=O)[C@H](CCC(N)=O)NC(=O)[C@H](C)NC(=O)[C@H](CCCNC(=N)N)NC(=O)[C@H](CCCCNC(=O)COCCOCCNC(=O)COCCOCCNC(=O)CC[C@H](NC(=O)CCCCCCCCCCCCCCCCC(=O)O)C(=O)O)NC(=O)[C@H](CO)NC(=O)[C@H](CC(=O)O)NC(=O)[C@H](CC(C)C)NC(=O)[C@](C)(Cc1ccccc1)NC(=O)[C@H](CCCCN)NC(=O)[C@H](CO)NC(=O)[C@@H](NC(=O)[C@H](CC(=O)O)NC(=O)[C@H](CO)NC(=O)[C@@H](NC(=O)[C@H](Cc1ccccc1)NC(=O)[C@@H](NC(=O)CNC(=O)[C@H](CCC(N)=O)NC(=O)C(C)(C)NC(=O)[C@@H](N)Cc1c[nH]cn1)[C@@H](C)O)[C@@H](C)O)C(C)C)C(C)C)C(=O)N[C@@H](C)C(=O)N[C@@H](CO)C(=O)N[C@@H](CCCNC(=N)N)C(=O)O

- hGLP-1R EC50 (pM) [1]: 19.1 pM
- hGluc-R EC50 (pM) [2]: 32.6 pM
B2: Peptide 143 (peptide)
peptide: H[Aib]QGTFTSDVSK[αMeF]LDSK([AEEA-AEEA-γGlu-C18 diacid])RARDFVQWLLE[Aib]G-OH
modifications: N-terminus assumed
SMILES: CC(C)C[C@H](NC(=O)[C@H](Cc1c[nH]c2ccccc12)NC(=O)[C@H](CCC(N)=O)NC(=O)[C@@H](NC(=O)[C@H](Cc1ccccc1)NC(=O)[C@H](CC(=O)O)NC(=O)[C@H](CCCNC(=N)N)NC(=O)[C@H](C)NC(=O)[C@H](CCCNC(=N)N)NC(=O)[C@H](CCCCNC(=O)COCCOCCNC(=O)COCCOCCNC(=O)CC[C@H](NC(=O)CCCCCCCCCCCCCCCCC(=O)O)C(=O)O)NC(=O)[C@H](CO)NC(=O)[C@H](CC(=O)O)NC(=O)[C@H](CC(C)C)NC(=O)[C@](C)(Cc1ccccc1)NC(=O)[C@H](CCCCN)NC(=O)[C@H](CO)NC(=O)[C@@H](NC(=O)[C@H](CC(=O)O)NC(=O)[C@H](CO)NC(=O)[C@@H](NC(=O)[C@H](Cc1ccccc1)NC(=O)[C@@H](NC(=O)CNC(=O)[C@H](CCC(N)=O)NC(=O)C(C)(C)NC(=O)[C@@H](N)Cc1c[nH]cn1)[C@@H](C)O)[C@@H](C)O)C(C)C)C(C)C)C(=O)N[C@@H](CC(C)C)C(=O)N[C@@H](CCC(=O)O)C(=O)NC(C)(C)C(=O)NCC(=O)O

- hGLP-1R EC50 (pM) [1]: 45.2 pM
- hGluc-R EC50 (pM) [2]: 702 pM
B3: Peptide 144 (peptide)
peptide: H[Aib]QGTFTSDVSK[αMeF]LDSK([γGlu-γGlu-AEEA-AEEA-γGlu-γGlu-C18 diacid])RARDFVRWLLE[Aib]G-OH
modifications: N-terminus assumed
SMILES: CC(C)C[C@H](NC(=O)[C@H](Cc1c[nH]c2ccccc12)NC(=O)[C@H](CCCNC(=N)N)NC(=O)[C@@H](NC(=O)[C@H](Cc1ccccc1)NC(=O)[C@H](CC(=O)O)NC(=O)[C@H](CCCNC(=N)N)NC(=O)[C@H](C)NC(=O)[C@H](CCCNC(=N)N)NC(=O)[C@H](CCCCNC(=O)CC[C@H](NC(=O)CC[C@H](NC(=O)COCCOCCNC(=O)COCCOCCNC(=O)CC[C@H](NC(=O)CC[C@H](NC(=O)CCCCCCCCCCCCCCCCC(=O)O)C(=O)O)C(=O)O)C(=O)O)C(=O)O)NC(=O)[C@H](CO)NC(=O)[C@H](CC(=O)O)NC(=O)[C@H](CC(C)C)NC(=O)[C@](C)(Cc1ccccc1)NC(=O)[C@H](CCCCN)NC(=O)[C@H](CO)NC(=O)[C@@H](NC(=O)[C@H](CC(=O)O)NC(=O)[C@H](CO)NC(=O)[C@@H](NC(=O)[C@H](Cc1ccccc1)NC(=O)[C@@H](NC(=O)CNC(=O)[C@H](CCC(N)=O)NC(=O)C(C)(C)NC(=O)[C@@H](N)Cc1c[nH]cn1)[C@@H](C)O)[C@@H](C)O)C(C)C)C(C)C)C(=O)N[C@@H](CC(C)C)C(=O)N[C@@H](CCC(=O)O)C(=O)NC(C)(C)C(=O)NCC(=O)O

- hGLP-1R EC50 (pM) [1]: 22.6 pM
- hGluc-R EC50 (pM) [2]: 4590 pM
B4: Peptide 145 (peptide)
peptide: H[Aib]QGTFTSDVSK[αMeF]LDSK([AEEA-AEEA-γGlu-C18 diacid])RAQDFVRWLASRGI-OH
modifications: N-terminus assumed
SMILES: CC[C@H](C)[C@H](NC(=O)CNC(=O)[C@H](CCCNC(=N)N)NC(=O)[C@H](CO)NC(=O)[C@H](C)NC(=O)[C@H](CC(C)C)NC(=O)[C@H](Cc1c[nH]c2ccccc12)NC(=O)[C@H](CCCNC(=N)N)NC(=O)[C@@H](NC(=O)[C@H](Cc1ccccc1)NC(=O)[C@H](CC(=O)O)NC(=O)[C@H](CCC(N)=O)NC(=O)[C@H](C)NC(=O)[C@H](CCCNC(=N)N)NC(=O)[C@H](CCCCNC(=O)COCCOCCNC(=O)COCCOCCNC(=O)CC[C@H](NC(=O)CCCCCCCCCCCCCCCCC(=O)O)C(=O)O)NC(=O)[C@H](CO)NC(=O)[C@H](CC(=O)O)NC(=O)[C@H](CC(C)C)NC(=O)[C@](C)(Cc1ccccc1)NC(=O)[C@H](CCCCN)NC(=O)[C@H](CO)NC(=O)[C@@H](NC(=O)[C@H](CC(=O)O)NC(=O)[C@H](CO)NC(=O)[C@@H](NC(=O)[C@H](Cc1ccccc1)NC(=O)[C@@H](NC(=O)CNC(=O)[C@H](CCC(N)=O)NC(=O)C(C)(C)NC(=O)[C@@H](N)Cc1c[nH]cn1)[C@@H](C)O)[C@@H](C)O)C(C)C)C(C)C)C(=O)O

- hGLP-1R EC50 (pM) [1]: 40.2 pM
- hGluc-R EC50 (pM) [2]: 568 pM
B5: Peptide 148 (peptide)
peptide: H[Aib]QGTFTSDVSK[αMeF]LDSK([AEEA-AEEA-γGlu-C18 diacid])RAQDFVRWIAE[Aib]G-OH
modifications: N-terminus assumed
SMILES: CC[C@H](C)[C@H](NC(=O)[C@H](Cc1c[nH]c2ccccc12)NC(=O)[C@H](CCCNC(=N)N)NC(=O)[C@@H](NC(=O)[C@H](Cc1ccccc1)NC(=O)[C@H](CC(=O)O)NC(=O)[C@H](CCC(N)=O)NC(=O)[C@H](C)NC(=O)[C@H](CCCNC(=N)N)NC(=O)[C@H](CCCCNC(=O)COCCOCCNC(=O)COCCOCCNC(=O)CC[C@H](NC(=O)CCCCCCCCCCCCCCCCC(=O)O)C(=O)O)NC(=O)[C@H](CO)NC(=O)[C@H](CC(=O)O)NC(=O)[C@H](CC(C)C)NC(=O)[C@](C)(Cc1ccccc1)NC(=O)[C@H](CCCCN)NC(=O)[C@H](CO)NC(=O)[C@@H](NC(=O)[C@H](CC(=O)O)NC(=O)[C@H](CO)NC(=O)[C@@H](NC(=O)[C@H](Cc1ccccc1)NC(=O)[C@@H](NC(=O)CNC(=O)[C@H](CCC(N)=O)NC(=O)C(C)(C)NC(=O)[C@@H](N)Cc1c[nH]cn1)[C@@H](C)O)[C@@H](C)O)C(C)C)C(C)C)C(=O)N[C@@H](C)C(=O)N[C@@H](CCC(=O)O)C(=O)NC(C)(C)C(=O)NCC(=O)O

- hGLP-1R EC50 (pM) [1]: 15.3 pM
- hGluc-R EC50 (pM) [2]: 43.5 pM
B6: Peptide 147 (peptide)
peptide: H[Aib]QGTFTSDVSK[αMeF]LDSK([AEEA-AEEA-γGlu-C18 diacid])RAQDFVRWLEA[Aib]G-OH
modifications: N-terminus assumed
SMILES: CC(C)C[C@H](NC(=O)[C@H](Cc1c[nH]c2ccccc12)NC(=O)[C@H](CCCNC(=N)N)NC(=O)[C@@H](NC(=O)[C@H](Cc1ccccc1)NC(=O)[C@H](CC(=O)O)NC(=O)[C@H](CCC(N)=O)NC(=O)[C@H](C)NC(=O)[C@H](CCCNC(=N)N)NC(=O)[C@H](CCCCNC(=O)COCCOCCNC(=O)COCCOCCNC(=O)CC[C@H](NC(=O)CCCCCCCCCCCCCCCCC(=O)O)C(=O)O)NC(=O)[C@H](CO)NC(=O)[C@H](CC(=O)O)NC(=O)[C@H](CC(C)C)NC(=O)[C@](C)(Cc1ccccc1)NC(=O)[C@H](CCCCN)NC(=O)[C@H](CO)NC(=O)[C@@H](NC(=O)[C@H](CC(=O)O)NC(=O)[C@H](CO)NC(=O)[C@@H](NC(=O)[C@H](Cc1ccccc1)NC(=O)[C@@H](NC(=O)CNC(=O)[C@H](CCC(N)=O)NC(=O)C(C)(C)NC(=O)[C@@H](N)Cc1c[nH]cn1)[C@@H](C)O)[C@@H](C)O)C(C)C)C(C)C)C(=O)N[C@@H](CCC(=O)O)C(=O)N[C@@H](C)C(=O)NC(C)(C)C(=O)NCC(=O)O

- hGLP-1R EC50 (pM) [1]: 59.4 pM
- hGluc-R EC50 (pM) [2]: 108 pM
B7: Peptide 142 (peptide)
peptide: H[Aib]QGTFTSDVSK[αMeF]LDSK([AEEA-AEEA-γGlu-C18 diacid])RARDFVAWLLE[Aib]G-OH
modifications: N-terminus assumed
SMILES: CC(C)C[C@H](NC(=O)[C@H](Cc1c[nH]c2ccccc12)NC(=O)[C@H](C)NC(=O)[C@@H](NC(=O)[C@H](Cc1ccccc1)NC(=O)[C@H](CC(=O)O)NC(=O)[C@H](CCCNC(=N)N)NC(=O)[C@H](C)NC(=O)[C@H](CCCNC(=N)N)NC(=O)[C@H](CCCCNC(=O)COCCOCCNC(=O)COCCOCCNC(=O)CC[C@H](NC(=O)CCCCCCCCCCCCCCCCC(=O)O)C(=O)O)NC(=O)[C@H](CO)NC(=O)[C@H](CC(=O)O)NC(=O)[C@H](CC(C)C)NC(=O)[C@](C)(Cc1ccccc1)NC(=O)[C@H](CCCCN)NC(=O)[C@H](CO)NC(=O)[C@@H](NC(=O)[C@H](CC(=O)O)NC(=O)[C@H](CO)NC(=O)[C@@H](NC(=O)[C@H](Cc1ccccc1)NC(=O)[C@@H](NC(=O)CNC(=O)[C@H](CCC(N)=O)NC(=O)C(C)(C)NC(=O)[C@@H](N)Cc1c[nH]cn1)[C@@H](C)O)[C@@H](C)O)C(C)C)C(C)C)C(=O)N[C@@H](CC(C)C)C(=O)N[C@@H](CCC(=O)O)C(=O)NC(C)(C)C(=O)NCC(=O)O
